Source: the supplement of paper PMC10567573

B1: ZNF207 (parent)
chain: FQPQPVQPQQGYIPPMAQPGLPPV
B2: WDFY1 (parent)
chain: LLIPKEDGVITASEDRTIRVWLKR

Variants of: B1
Assay: protein stability index of a GFP-peptide fusion (GPS, HEK-293T) (PSI 1-6); higher = more stable
Settings: c terminus: a fixed tail appended
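Also: lentivirally expressed fusions sorted by FACS into six bins by GFP to DsRed ratio, PSI derived from sequencing read proportions per bin multiplied by bin number.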

Point of comparison: FQPQPVQPQQGYIPPMAQPRLPPV [G20R], protein stability index 3.33. Against it:
- FQPQPVSPQQGYIPPMAQPGLPPV [Q7S] — higher, 3.5
- FQPQPVKPQQGYIPPMAQPGLPPV [Q7K] — lower, 3.04
- FQPQPVQPQQGYIPPMAQPGKPPV [L21K] — higher, 3.48
- FQPQPWQPQQGYIPPMAQPGLPPV [V6W] — lower, 2.62
- FQPQPCQPQQGYIPPMAQPGLPPV [V6C] — lower, 2.89
- FQPQPNQPQQGYIPPMAQPGLPPV [V6N] — lower, 2.86
- FQPQPSQPQQGYIPPMAQPGLPPV [V6S] — lower, 3.19
- FQPQPMQPQQGYIPPMAQPGLPPV [V6M] — lower, 2.71
- FQPQPVQPQQGYIPPMANPGLPPV [Q18N] — lower, 3.11
- FQPQPVQPQQGYIPPMAKPGLPPV [Q18K] — lower, 2.88
- FQPQPVQPQQGYIPPMACPGLPPV [Q18C] — lower, 2.37
- FQPQPVQPQQGYIPPMASPGLPPV [Q18S] — lower, 2.95
- FQPQPVQPQQGYIWPMAQPGLPPV [P14W] — lower, 1.98
- FQPQPVQPQQGYIIPMAQPGLPPV [P14I] — lower, 2.63
- FQPQPVQPQQGYINPMAQPGLPPV [P14N] — lower, 2.5
- FQPQPVQPCQGYIPPMAQPGLPPV [Q9C] — lower, 2.77
- FQPQPVQPYQGYIPPMAQPGLPPV [Q9Y] — lower, 2.32
- FQPQPVQPEQGYIPPMAQPGLPPV [Q9E] — higher, 3.45
- FQYQPVQPQQGYIPPMAQPGLPPV [P3Y] — lower, 3.13
- FQPQPVQPQQGYIPPMAQHGLPPV [P19H] — lower, 3.19
- FQPQPVQPQQGYIPPMAQPGLPSV [P23S] — lower, 3.19
- FQPQPVQPQQGYIPPMAQPGLPWV [P23W] — lower, 1.7
- FQPQPVQPQQGYIPPMAQPGLPHV [P23H] — lower, 2.77
- FQPQPVQPQQGYIPPMAQPGLPQV [P23Q] — lower, 3.14
- FQPQPVQPQQGYIPPMAQPGLPPI [V24I] — lower, 3.26
- FQPQPVQPQQGYIPPMAQPGLPPR [V24R] — higher, 3.38
- FQPQPVQPQQGYIPPMAQPGLPPQ [V24Q] — the same, 3.33
- FQPQPVQPQQGYIPPMAQPGLPPS [V24S] — lower, 2.93
- FQPQPVQPQQGYIPPMAQPGLPPY [V24Y] — lower, 2.4
- FQPQPVQPQQGYIPPMAQPGLPPK [V24K] — lower, 2.92
- FQPFPVQPQQGYIPPMAQPGLPPV [Q4F] — lower, 2.42
- FQPIPVQPQQGYIPPMAQPGLPPV [Q4I] — lower, 2.31
- FQPQPVQPQQGYIPPMAQPGLDPV [P22D] — lower, 3.06
- FQPQPVQPQQGYIPPMAQPGLSPV [P22S] — lower, 2.13
- FQPQPVQPQQGYIPPMAQPGLKPV [P22K] — higher, 3.4
- FQPQPVQPQQGYIPPMAQPGLRPV [P22R] — lower, 2.88
- FQPQPVQPQQGYIPPMAQPGLCPV [P22C] — lower, 2.38
- FQPQPVQPQQGYIPPMAQPGLAPV [P22A] — higher, 3.37
- FQPQPVQPQQGYIPPMAQPGLLPV [P22L] — lower, 2.99
- FQPQPVQPQQGYIPPMAQPGLTPV [P22T] — lower, 2.7
- FQPQPVQPQQGQIPPMAQPGLPPV [Y12Q] — higher, 4.03
- FQPQPVQPQQGGIPPMAQPGLPPV [Y12G] — higher, 3.53
- FQPQPVQPQQGSIPPMAQPGLPPV [Y12S] — higher, 3.81
- FQPQPVQPQQGHIPPMAQPGLPPV [Y12H] — higher, 3.54
- FMPQPVQPQQGYIPPMAQPGLPPV [Q2M] — lower, 3.13
- FQPQPVQPQQGYIPPDAQPGLPPV [M16D] — higher, 3.7
- FQPQPVQPQQGYIPPVAQPGLPPV [M16V] — higher, 3.64
- FQPQPVQPQQGYIPPCAQPGLPPV [M16C] — lower, 3.08
- FQPQPVQPQQGYIPPMYQPGLPPV [A17Y] — lower, 2.25
- FQPQPVQPQQGYIPPMEQPGLPPV [A17E] — higher, 3.42
- FQPQPVQPQQGYIPPMGQPGLPPV [A17G] — lower, 2.98
- FQPQPVQPQQGYIPPMQQPGLPPV [A17Q] — higher, 3.39
- FQPQPVQPQQGYIPPMMQPGLPPV [A17M] — higher, 3.4
- FQPQPVQPQQGYIPPMFQPGLPPV [A17F] — lower, 2.5
- FQPQPVQTQQGYIPPMAQPGLPPV [P8T] — lower, 2.91
- FQPQPVQCQQGYIPPMAQPGLPPV [P8C] — lower, 2.54
- FQPQPVQQQQGYIPPMAQPGLPPV [P8Q] — lower, 2.95
- FQPQPVQFQQGYIPPMAQPGLPPV [P8F] — lower, 2.88
- FQPQPVQVQQGYIPPMAQPGLPPV [P8V] — lower, 2.92
- FQPQPVQKQQGYIPPMAQPGLPPV [P8K] — lower, 3.15
- FQPQPVQPQQGYQPPMAQPGLPPV [I13Q] — higher, 3.59
- FQPQPVQPQQGYRPPMAQPGLPPV [I13R] — lower, 3.16
- FQPQPVQPQQGYLPPMAQPGLPPV [I13L] — higher, 3.52
- FQPQPVQPQQGYVPPMAQPGLPPV [I13V] — higher, 3.44
- FQPQPVQPQQGYIPWMAQPGLPPV [P15W] — lower, 1.73
- FQPQPVQPQQGYIPRMAQPGLPPV [P15R] — lower, 2.97
- FQPQPVQPQQGYIPKMAQPGLPPV [P15K] — lower, 2.81
- FQPQPVQPQQGYIPLMAQPGLPPV [P15L] — lower, 2.72
- FQPQPVQPQQGYIPMMAQPGLPPV [P15M] — lower, 2.62
- FQPQPVQPQQGYIPGMAQPGLPPV [P15G] — lower, 3.07
- FQPQPVQPQQGYIPDMAQPGLPPV [P15D] — lower, 3.04
- FQPQRVQPQQGYIPPMAQPGLPPV [P5R] — lower, 2.58
- FQPQYVQPQQGYIPPMAQPGLPPV [P5Y] — lower, 2.59
- FQPQQVQPQQGYIPPMAQPGLPPV [P5Q] — lower, 2.99
- FQPQAVQPQQGYIPPMAQPGLPPV [P5A] — lower, 3.22
- FQPQLVQPQQGYIPPMAQPGLPPV [P5L] — lower, 2.88
- FQPQIVQPQQGYIPPMAQPGLPPV [P5I] — lower, 2.63
- FQPQPVQPQSGYIPPMAQPGLPPV [Q10S] — lower, 2.86
- FQPQPVQPQEGYIPPMAQPGLPPV [Q10E] — lower, 3.1
- FQPQPVQPQTGYIPPMAQPGLPPV [Q10T] — higher, 3.34
- FQPQPVQPQDGYIPPMAQPGLPPV [Q10D] — higher, 3.54
- FQPQPVQPQNGYIPPMAQPGLPPV [Q10N] — lower, 3.28
- NQPQPVQPQQGYIPPMAQPGLPPV [F1N] — higher, 4.33
- RQPQPVQPQQGYIPPMAQPGLPPV [F1R] — higher, 4
- AQPQPVQPQQGYIPPMAQPGLPPV [F1A] — higher, 4.29
- KQPQPVQPQQGYIPPMAQPGLPPV [F1K] — higher, 4.37
- FQPQPVQPQQQYIPPMAQPGLPPV [G11Q] — lower, 3.18
- FQPQPVQPQQFYIPPMAQPGLPPV [G11F] — lower, 2.45
- FQPQPVQPQQHYIPPMAQPGLPPV [G11H] — lower, 3.21

Variants of: B2
Assay: as above
Settings: c terminus: a fixed tail appended

Point of comparison: MLIPKEDGVITASEDRTIRVWLKR [L1M], protein stability index 3.12. Against it:
- FLIPKEDGVITASEDRTIRVWLKR [L1F] — lower, 2.24
- HLIPKEDGVITASEDRTIRVWLKR [L1H] — lower, 2.83
- VLIPKEDGVITASEDRTIRVWLKR [L1V] — lower, 2.56
